Data published in PMC10559304 (Molecular Biology of the Cell, 2023).
Read-outs that look alike come from different tables or passages of the source.

Experiments:
[1] = molecular target: D. melanogaster KLP61F extended bipolar assembly domain (BASS-XL) minifilament (D. melanogaster) (UniProt P46863); experiment: crystal structure
[2] = molecular target: GMPCPP-polymerized, Taxol-stabilized microtubules of the crosslinking and sliding assay (surface-immobilized HiLyte 647/biotin MTs and free rhodamine MTs); experiment: MT crosslinking and sliding assay by three-colour TIRF microscopy
[3] = molecular target: Taxol-stabilized microtubules of unlabeled, Alexa 647-labeled and biotinylated tubulin (50:2:1.5) (not stated (Pork or Bovine brains)); experiment: single-molecule TIRF microscopy motility assay
[4] = molecular target: microtubules of biotin- and Alexa-Fluor-633-labeled porcine tubulin, polymerized with GMPCPP or Paclitaxel (porcine); experiment: single-molecule TIRF microscopy motility assay
[5] = molecular target: microtubules of biotin- and Alexa-Fluor-633-labeled porcine tubulin, polymerized with GMPCPP or Paclitaxel (porcine); experiment: single-molecule TIRF microscopy motility assay; remark: listed apart in the source
[6] = molecular target: microtubules of biotin- and Alexa-Fluor-633-labeled porcine tubulin, polymerized with GMPCPP or Paclitaxel (porcine); experiment: single-molecule TIRF microscopy motility assay; remark: listed apart in the source
[7] = molecular target: microtubules of biotin- and Alexa-Fluor-633-labeled porcine tubulin, polymerized with GMPCPP or Paclitaxel (porcine); experiment: single-molecule TIRF microscopy motility assay; remark: listed apart in the source
[8] = molecular target: microtubules of biotin- and Alexa-Fluor-633-labeled porcine tubulin, polymerized with GMPCPP or Paclitaxel (porcine); experiment: single-molecule TIRF microscopy motility assay; remark: listed apart in the source
mass photometry = molecular target: the molecule itself; experiment: mass photometry
[9] = molecular target: the molecule itself; experiment: single-molecule TIRF microscopy, Neon Green spot intensities

D. melanogaster KLP61F extended bipolar assembly domain (BASS-XL) minifilament (from UniProt P46863 597-833) (domain or fragment)
stoichiometry N [1]: 4

full-length human kinesin-5 (Eg5) without the tail, GFP fusion (domain or fragment)
percent of surface-immobilized MTs crosslinked to free MTs [2]: 54%

human Eg5 kinesin-5 minitetramer without tail, labeled with Tetra-methyl Rhodamine (from UniProt P52732;P46863)
lifetime at MT plus-ends, long population (Weibull a2) [3]: 140 s | lifetime at MT plus-ends, short population (Weibull a1) [3]: 14.6 s

B1: D. melanogaster KLP61F kinesin-5 minitetramer with tail, fused to Neon Green (other)
chain: MDISGGNTSRQPQKKSNQNIQVYVRVRPLNSRERCIRSAEVVDVVGPREVVTRHTLDSKLTKKFTFDRSFGPESKQCDVYSVVVSPLIEEVLNGYNCTVFAYGQTGTGKTHTMVGNETAELKSSWEDDSDIGIIPRALSHLFDELRMMEVEYTMRISYLELYNEELCDLLSTDDTTKIRIFDDSTKKGSVIIQGLEEIPVHSKDDVYKLLEKGKERRKTATTLMNAQSSRSHTVFSIVVHIRENGIEGEDMLKIGKLNLVDLAGSENVSKAGNEKGIRVRETVNINQSLLTLGRVITALVDRAPHVPYRESKLTRLLQESLGGRTKTSIIATISPGHKDIEETLSTLEYAHRAKNIQNKPEVNQKLTKKAQSLQDQTNLHNKLIGEVMKISDQHSQAFVAKLMEQMQQQQLLMSKEIQTNLQVIEENNQRHKAMLDSMQEKFATIIDSSLQSVEEHAKQMHKKLEQLGAMSLPDAEELQNLQEELANERALAQQEDALLESMMMQMEQIKNLRSKNSISMSVHLNKMEESRLTRNHRIDDIKSGIQDYQKLGIEASQSAQAELTSQMEAGMLCLDQGVANCSMLQVHMKNLNQKYEKETNENVGSVQICEQELVRFQQSELKTYAPTGTTPSKRDFVYPRTLVATSPHQEIVRRYRQELDWSDLDTTATIDECSEGEHDVSMHSVQELSETETIMNSTPIEPVDGVTVKRGCGTTRNSNSNALKPPVATGGKRSSSLSRSLTPSKTSPRGSPAFVRHNKENVA
MT plus-end dwell time [4]: 25 s | MT plus-end dwell time [5]: 117 s | percent of surface-immobilized MTs crosslinked to free MTs [2]: 24% | MT plus-end dwell time [6]: 125 s | MT plus-end dwell time [7]: 267 s | MT plus-end dwell time [8]: 147 s | stoichiometry N (mass photometry): 4 | stoichiometry N [9]: 5 to 10 motors per cluster

B2: D. melanogaster KLP61F kinesin-5 minitetramer without tail, fused to Neon Green (other)
chain: MDISGGNTSRQPQKKSNQNIQVYVRVRPLNSRERCIRSAEVVDVVGPREVVTRHTLDSKLTKKFTFDRSFGPESKQCDVYSVVVSPLIEEVLNGYNCTVFAYGQTGTGKTHTMVGNETAELKSSWEDDSDIGIIPRALSHLFDELRMMEVEYTMRISYLELYNEELCDLLSTDDTTKIRIFDDSTKKGSVIIQGLEEIPVHSKDDVYKLLEKGKERRKTATTLMNAQSSRSHTVFSIVVHIRENGIEGEDMLKIGKLNLVDLAGSENVSKAGNEKGIRVRETVNINQSLLTLGRVITALVDRAPHVPYRESKLTRLLQESLGGRTKTSIIATISPGHKDIEETLSTLEYAHRAKNIQNKPEVNQKLTKKAQSLQDQTNLHNKLIGEVMKISDQHSQAFVAKLMEQMQQQQLLMSKEIQTNLQVIEENNQRHKAMLDSMQEKFATIIDSSLQSVEEHAKQMHKKLEQLGAMSLPDAEELQNLQEELANERALAQQEDALLESMMMQMEQIKNLRSKNSISMSVHLNKMEESRLTRNHRIDDIKSGIQDYQKLGIEASQSAQAELTSQMEAGMLCLDQGVANCSMLQVHMKNLNQKYEKETNENVGSV
MT plus-end dwell time [5]: 78 s | percent of surface-immobilized MTs crosslinked to free MTs [2]: 2% | MT plus-end dwell time [7]: 25 s | stoichiometry N (mass photometry): 4
